Measured values reported in US20240294632A1 (XL PROTEIN, published 2024).

Columns and labels:
[1] = molecular target: T1, PASylated Thymosin alpha 1; assay: sandwich ELISA in diluted rat plasma: MAb 2.1 coated as capture antibody, MAb 1.2-alkaline phosphatase as detection reagent; calibration curve
T1 construct: also called PASylated Tα1
T1 chain: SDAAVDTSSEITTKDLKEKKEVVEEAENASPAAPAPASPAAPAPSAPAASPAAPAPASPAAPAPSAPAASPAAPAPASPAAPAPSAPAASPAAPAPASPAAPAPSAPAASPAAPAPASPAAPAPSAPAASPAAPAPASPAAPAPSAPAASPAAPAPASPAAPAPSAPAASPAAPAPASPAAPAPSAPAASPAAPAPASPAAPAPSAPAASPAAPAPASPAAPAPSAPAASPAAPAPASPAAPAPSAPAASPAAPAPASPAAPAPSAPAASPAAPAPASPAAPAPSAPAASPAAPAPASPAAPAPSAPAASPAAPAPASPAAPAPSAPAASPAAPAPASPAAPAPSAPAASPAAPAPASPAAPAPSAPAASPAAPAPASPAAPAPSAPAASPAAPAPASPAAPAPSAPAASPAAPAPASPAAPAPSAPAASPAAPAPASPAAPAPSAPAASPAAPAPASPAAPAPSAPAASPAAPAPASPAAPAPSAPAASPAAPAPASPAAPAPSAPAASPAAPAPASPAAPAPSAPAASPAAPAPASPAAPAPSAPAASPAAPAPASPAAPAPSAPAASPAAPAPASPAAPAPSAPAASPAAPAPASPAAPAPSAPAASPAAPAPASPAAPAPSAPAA

[2] = molecular target: T2, hu4D5-P/A #1(200); assay: MAb capture ELISA, hybridoma supernatant on anti-mouse IgG Fc, antigen titrated
T2 construct: Detected with anti-human kappa light chain antibody in the capture ELISA

[3] = molecular target: T3, hu4D5-PAS #1(200); assay: as above
T3 construct: Detected with anti-human kappa light chain antibody in the capture ELISA

[4] = molecular target: T2, hu4D5-P/A #1(200); assay: MAb capture ELISA: MAb from hybridoma supernatant captured by anti-mouse IgG Fc, hu4D5-P/A#1(200) titrated (x axis: antigen concentration)
[5] = molecular target: T4, IL1Ra (Kineret/Anakinra) (UniProt P18510 26-177); assay: western blot, hybridoma supernatant 1:2000 or purified MAb 1:200000
T4 construct: Commercial drug product; also called non-PASylated protein version

[6] = molecular target: T5, P/A #1(200)-IL1Ra; assay: SPR, MAb from hybridoma supernatant captured by anti-mouse antibody, antigen as analyte, bivalent analyte model
T5 construct: PASylated fusion protein produced in E. coli; Biotinylated for the SPR measurements with Fabs

[7] = molecular target: T6, PAS #1(200)-IL1Ra; assay: as above
T6 construct: PASylated fusion protein produced in E. coli; Biotinylated for the SPR measurements with Fabs

[8] = molecular target: T5, P/A #1(200)-IL1Ra; assay: Western blot of the fusion protein after SDS-PAGE; anti-mouse IgG Fc-AP, BCIP/NBT [F]
[9] = molecular target: T7, P/A #1 sequence; assay: SPOT peptide array / hybridoma screening
T7 construct: in sentences on specificity it stands for P/A #1 polypeptides in general
T7 peptide: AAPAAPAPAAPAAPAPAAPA

[10] = molecular target: T8, anti-Galectin-PAS(200) Fab fragment; assay: SPR, MAb 1.1 covalently coupled to a CM5 chip, PASylated anti-Galectin Fab injected
T8 construct: also called PASylated humanized anti-Galectin Fab fragment; PAS-Fab

[11] = molecular target: T4, IL1Ra (Kineret/Anakinra); assay: western blot, hybridoma supernatant 1:2000
[12] = molecular target: T9, StrepII-eGFP-PAS #1(200); assay: affinity chromatography on Fab coupled to a 1 ml HiTrap NHS column, elution with 1 M L-prolinamide; A280/A488 traces and SDS-PAGE of the fractions
T9 construct: also called StrepII-eGFP-PAS #1(200) fusion protein

[13] = molecular target: T6, PAS #1(200)-IL1Ra; assay: SPR, biotinylated antigen on CAPture chip, Fab as analyte, 1:1 model
[14] = molecular target: T10, H1GA-PAS #1(200)-His6; assay: affinity chromatography of a periplasmic extract on Fab coupled to a 1 ml HiTrap column, elution with 1 M L-prolinamide; blank-corrected A280 trace and SDS-PAGE [B]
T10 construct: also called C-terminally PASylated Anticalin H1GA-PAS #1(200)-His6
T10 chain: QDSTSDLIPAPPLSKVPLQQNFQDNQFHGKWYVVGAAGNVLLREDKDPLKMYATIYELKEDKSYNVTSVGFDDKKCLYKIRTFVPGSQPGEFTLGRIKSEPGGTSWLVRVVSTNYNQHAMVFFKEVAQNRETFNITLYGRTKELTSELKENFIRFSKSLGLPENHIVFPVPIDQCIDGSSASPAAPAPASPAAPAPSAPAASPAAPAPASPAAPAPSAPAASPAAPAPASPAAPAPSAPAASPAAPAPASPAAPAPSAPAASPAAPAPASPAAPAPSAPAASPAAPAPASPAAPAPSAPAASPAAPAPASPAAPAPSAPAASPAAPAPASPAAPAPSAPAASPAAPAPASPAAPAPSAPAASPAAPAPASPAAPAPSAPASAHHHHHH

[15] = molecular target: P/A#1(600)-GMCSF; assay: ELISA, Fab titrated on P/A#1(600)-GMCSF
[16] = molecular target: T11, PAS #1(600)-Leptin; assay: ELISA, antigen coated, Fab titrated
T11 chain: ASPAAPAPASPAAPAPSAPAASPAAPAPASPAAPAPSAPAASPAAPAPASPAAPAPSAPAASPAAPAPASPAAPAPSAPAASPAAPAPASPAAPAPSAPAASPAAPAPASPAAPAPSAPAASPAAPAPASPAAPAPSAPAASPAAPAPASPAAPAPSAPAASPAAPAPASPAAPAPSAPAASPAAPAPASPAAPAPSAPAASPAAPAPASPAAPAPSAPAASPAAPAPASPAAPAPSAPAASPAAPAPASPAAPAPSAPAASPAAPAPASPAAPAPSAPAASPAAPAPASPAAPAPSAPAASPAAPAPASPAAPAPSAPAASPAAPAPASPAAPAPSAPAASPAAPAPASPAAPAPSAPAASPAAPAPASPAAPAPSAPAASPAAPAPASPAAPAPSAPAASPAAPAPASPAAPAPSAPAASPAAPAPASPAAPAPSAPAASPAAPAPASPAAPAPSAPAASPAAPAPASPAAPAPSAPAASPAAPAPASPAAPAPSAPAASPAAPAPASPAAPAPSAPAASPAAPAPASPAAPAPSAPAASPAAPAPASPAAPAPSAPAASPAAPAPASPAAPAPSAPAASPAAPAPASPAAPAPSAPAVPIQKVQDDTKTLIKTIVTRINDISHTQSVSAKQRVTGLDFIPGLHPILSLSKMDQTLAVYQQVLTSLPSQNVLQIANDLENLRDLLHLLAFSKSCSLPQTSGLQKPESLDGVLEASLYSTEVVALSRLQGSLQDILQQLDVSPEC

[17] = molecular target: T11, PAS #1(600)-Leptin; assay: ELISA, Fab titrated on PAS#1(600)-Leptin (x axis: Fab concentration)
[18] = molecular target: IL1Ra-PAS#1(800); assay: ELISA, Fab titrated on IL1Ra-PAS#1(800) (x axis: Fab concentration)
[19] = molecular target: T7, P/A #1 sequence; assay: ELISA and SPR with Fabs
[20] = molecular target: T3, hu4D5-PAS #1(200); assay: MAb capture ELISA: MAb from hybridoma supernatant captured by anti-mouse IgG Fc, hu4D5-PAS#1(200) titrated (x axis: antigen concentration)
[21] = molecular target: T5, P/A #1(200)-IL1Ra; assay: Western blot of the fusion protein after SDS-PAGE; anti-mouse IgG Fc-AP, BCIP/NBT [G]
[22] = molecular target: T12, APSA(200)-TrxA; assay: SPR, biotinylated antigen on CAPture chip, Fab as analyte, 1:1 model
T12 construct: Biotinylated and immobilised on a biotin CAPture chip; also called thioredoxinA-APSA(200)

[23] = molecular target: T13, APSA(200)-IL1Ra; assay: ELISA, antigen coated, Fab titrated
T13 construct: Fusion protein produced in E. coli; Labelled with DIG-NHS in the MAb capture ELISA

[24] = molecular target: T13, APSA(200)-IL1Ra; assay: ELISA, Fab titrated on coated APSA(200)-IL1Ra
[25] = molecular target: T14, Pga-APSAAPSAAPSA (N-terminal pyroglutamyl residue (Pga), counted as P1 in the structure); assay: co-crystal structure of the recombinant Fab with the peptide
T14 construct: Peptide ligand co-crystallised with the Fab of MAb 3.1; also called Pga-(APSA)3 peptide; (APSA)3 peptide
T14 peptide: APSAAPSAAPSA

[26] = molecular target: T13, APSA(200)-IL1Ra; assay: MAb capture ELISA, hybridoma supernatant on anti-mouse IgG Fc, DIG-labelled antigen titrated
[27] = molecular target: T6, PAS #1(200)-IL1Ra; assay: Western blot of the fusion protein after SDS-PAGE; anti-mouse IgG Fc-AP, BCIP/NBT [D]
[28] = molecular target: T13, APSA(200)-IL1Ra; assay: SPR, MAb from hybridoma supernatant captured by anti-mouse antibody, antigen as analyte, bivalent analyte model

T4 sequence (P18510 26-177 limits assumed): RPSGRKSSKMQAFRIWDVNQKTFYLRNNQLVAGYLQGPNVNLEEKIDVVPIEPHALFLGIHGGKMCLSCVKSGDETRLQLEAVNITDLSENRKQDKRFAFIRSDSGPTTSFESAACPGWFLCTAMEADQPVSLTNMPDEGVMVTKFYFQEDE
T5 sequence (chain, as listed by the source limits assumed): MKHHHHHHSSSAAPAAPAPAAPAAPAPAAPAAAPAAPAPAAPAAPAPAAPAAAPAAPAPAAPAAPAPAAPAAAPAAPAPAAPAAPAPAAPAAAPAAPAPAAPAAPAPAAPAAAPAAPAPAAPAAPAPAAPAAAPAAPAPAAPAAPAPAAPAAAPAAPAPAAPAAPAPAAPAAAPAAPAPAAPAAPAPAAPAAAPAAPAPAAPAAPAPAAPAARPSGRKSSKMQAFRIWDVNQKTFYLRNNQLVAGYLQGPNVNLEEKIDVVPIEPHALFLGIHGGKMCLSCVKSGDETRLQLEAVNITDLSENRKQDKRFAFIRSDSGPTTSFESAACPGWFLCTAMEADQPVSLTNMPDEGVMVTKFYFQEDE
T8 sequence (chain, as listed by the source): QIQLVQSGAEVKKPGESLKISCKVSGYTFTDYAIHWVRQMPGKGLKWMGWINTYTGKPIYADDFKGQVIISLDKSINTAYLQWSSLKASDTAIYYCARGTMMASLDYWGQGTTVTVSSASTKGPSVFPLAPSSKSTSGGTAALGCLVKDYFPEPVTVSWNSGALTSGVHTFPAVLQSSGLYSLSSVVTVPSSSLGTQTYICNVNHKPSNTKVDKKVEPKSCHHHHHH

B1: Anti-PA(S) MAb 2.1 (antibody, V domains shown)
VH: QVTLKESGPGILQPSQTLSLTCSFSGFSLSTYDMGVGWIRQPSGKGLEWLANIWWNDNKYYNSALKSRLTISKDTSNNQVFLKISSVDATDTATYYCAQMRDNYGVWFAFWGQGTLVTVSA
VL: DIVMSQSPSSLAVSVGEKVTMSCKSSQSLFYSNREKNYLAWYQQKPGQSPKLLIYWASTRESGVPDRFTGSGSGTDFTLTISNVKAEDLAVYYCQQYYNYPTFGAGTKLELKR
notes: Mouse monoclonal IgG from hybridoma (supernatant or protein G purified); also called DSM ACC3366
[1]
  binding result: binds
[2]
  Kd: 0.17 nM
[3]
  Kd: 0.113 nM
[4]
  EC50 (read off the curve): ~0.08 nM
[5]
  binding result: no binding
[6]
  Kd: 0.429 nM
[7]
  Kd: 1.7 nM

B2: Anti-PA(S) MAb 1.1 (antibody, V domains shown)
VH: QVQLKESGPGLVAPSQSLSITCTVSGFSLTGYGVNWVRQPPGKGLEWLGMIWGDGITDYNSALKSRLSISKDNSKSQVFLKMNSLQTDDTARYYCARDYYGRRYYAMDYWGQGTSVTVSS
VL: DIVLTQSPASLAVSLGQRATISCRASKSVSSSGYNYMFWYQQKPGQPPKLLIYLASNLESGVPDRFWGSGSGTDFTLNIHPVEEEDAATYYCQHSRELPLTFGAGTKLELKR
notes: Mouse monoclonal IgG from hybridoma (culture supernatant); also called anti-PAS 1.1 MAb; DSM ACC3365
[3]
  Kd: 0.037 nM
[8]
  binding result: no binding (tested: hybridoma supernatant diluted 1:2000)
[9]
  binding result: no binding
[10]
  binding result: binds
[7]
  Kd: 1 nM
[11]
  binding result: no binding

B3: Fab fragment of Anti-PA(S) MAb 1.2 (Fab, V domains shown)
VH: QVQLVESGGGLVQPGGSLKLSCAASGFTFSSYGMSWVRQTPDKRLELVATINSNGGSTYYLDSVKGRFTISRDKAKNTLYLQMSSLKSEDTAMYYCVRGGSIYDGYDYAMDYWGQGTSVTVSS
VL: DIVLTQSPASLAVSLGQRATISCRASQSVSTSSYSYMHWFQQKPGQPPKLLIKYASNLESGVPARFSGSGSGTDFTLNIHPVEEEDTATYYCQHSWEIPLTFGAGTKLELKR
notes: also called Anti-PA(S) MAb 1.2 Fab; anti-PAS Fab 1.2
[12]
  binding result: binds
[13]
  Kd: 3700 nM
[14]
  binding result: binds
[15]
  binding result: no binding (tested: 4000 nM)
[16]
  Kd: 123 nM
[17]
  EC50 (read off the curve): ~100 nM
[18]
  EC50 (read off the curve): ~200 nM
[19]
  binding result: no binding

B4: Anti-PA(S) MAb 1.2 (antibody, V domains shown)
VH: QVQLVESGGGLVQPGGSLKLSCAASGFTFSSYGMSWVRQTPDKRLELVATINSNGGSTYYLDSVKGRFTISRDKAKNTLYLQMSSLKSEDTAMYYCVRGGSIYDGYDYAMDYWGQGTSVTVSS
VL: DIVLTQSPASLAVSLGQRATISCRASQSVSTSSYSYMHWFQQKPGQPPKLLIKYASNLESGVPARFSGSGSGTDFTLNIHPVEEEDTATYYCQHSWEIPLTFGAGTKLELKR
notes: Mouse monoclonal IgG from hybridoma (culture supernatant); alkaline phosphatase conjugate in the thymosin sandwich ELISA
[1]
  binding result: binds
[3]
  Kd: 0.162 nM
[9]
  binding result: no binding
[20]
  EC50 (read off the curve): ~0.2 nM
[21]
  binding result: no binding (tested: hybridoma supernatant diluted 1:2000)
[7]
  Kd: 44 nM
[11]
  binding result: no binding

B5: Fab fragment of Anti-PA(S) MAb 3.1 (Fab, V domains shown)
VH: QVQLQQSGAELVRPGASVKLSCKALGYIFTDYEMHWVKQTPVHGLEWIGVIHPGSGNTVYNQKFQGKATLTADKSSSTAYMEVSSLTSEDSAVYYCNLWGRWGQGTTLTVSS
VL: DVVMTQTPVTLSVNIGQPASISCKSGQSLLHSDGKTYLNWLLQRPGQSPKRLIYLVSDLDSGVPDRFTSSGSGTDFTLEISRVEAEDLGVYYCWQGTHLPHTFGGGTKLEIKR
notes: also called Anti-PA(S) MAb 3.1 Fab; anti-APSA antibody fragment
[22]
  Kd: 2.5 nM
[23]
  Kd: 1.9 nM
[24]
  EC50 (read off the curve): ~2 nM
[25]
  binding result: binds

B6: Anti-PA(S) MAb 3.1 (antibody, V domains shown)
VH: QVQLQQSGAELVRPGASVKLSCKALGYIFTDYEMHWVKQTPVHGLEWIGVIHPGSGNTVYNQKFQGKATLTADKSSSTAYMEVSSLTSEDSAVYYCNLWGRWGQGTTLTVSS
VL: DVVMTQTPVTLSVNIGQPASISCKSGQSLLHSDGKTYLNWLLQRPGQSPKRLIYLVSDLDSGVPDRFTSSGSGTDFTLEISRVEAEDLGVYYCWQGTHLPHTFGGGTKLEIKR
notes: Mouse monoclonal IgG from hybridoma (culture supernatant); also called DSM ACC3367
[26]
  Kd: 0.118 nM
[27]
  binding result: no binding (tested: hybridoma supernatant diluted 1:2000)
[28]
  Kd: 0.019 nM
[11]
  binding result: no binding
